{"source": "patent US20090238836", "proteins": {"B1": {"name": "human Hip kinase 4 (HipK4), recombinant, expressed in Sf9 insect cells (protein)", "chain": "MSTIQSETDCYDIIEVLGKGTFGEVAKGWRRSTGEMVAIKILKNDAYRNRIIKNELKLLHCMRGLDPEEAHVIRFLEFFHDALKFYLVFELLEQNLFEFQKENNFAPLPARHIRTVTLQVLTALARLKELAIIHADLKPENIMLVDQTRCPFRVKVIDFGSASIFSEVRYVKEPYIQSRFYRAPEILLGLPFCEKVDVWSLGCVMAELHLGWPLYPGNNEYDQVRYICETQGLPKPHLLHAACKAHHFFKRNPHPDAANPWQLKSSADYLAETKVRPLERRKYMLKSLDQIETVNGGSVASRLTFPDREALAEHADLKSMVELIKRMLTWESHERISPSAALRHPFVSMQQLRSAHETTHYYQLSLRSYRLSLQVEGKPPTPVVAAEDGTPYYCLAEEKEAAGMGSVAGSSPFFREEKAPGMQRAIDQLDDLSLQEAGHGLWGETCTNAVSDMMVPLKAAITGHHVPDSGPEPILAFYSSRLAGRHKARKPPAGSKSDSNFSNLIRLSQVSPEDDRPCRGSSWEEGEHLGASAEPLAILQRDEDGPNIDNMTMEAERPDPELFDPSSCPGEWLSEPDCTLESVRGPRAQGLPPRRSHQHGPPRGATSFLQHVTGHH"}}, "key": {"[1]": {"target": "T1, FoxO3a (NP-963853), substrate peptide from a peptide library, O43524", "T1 chain": "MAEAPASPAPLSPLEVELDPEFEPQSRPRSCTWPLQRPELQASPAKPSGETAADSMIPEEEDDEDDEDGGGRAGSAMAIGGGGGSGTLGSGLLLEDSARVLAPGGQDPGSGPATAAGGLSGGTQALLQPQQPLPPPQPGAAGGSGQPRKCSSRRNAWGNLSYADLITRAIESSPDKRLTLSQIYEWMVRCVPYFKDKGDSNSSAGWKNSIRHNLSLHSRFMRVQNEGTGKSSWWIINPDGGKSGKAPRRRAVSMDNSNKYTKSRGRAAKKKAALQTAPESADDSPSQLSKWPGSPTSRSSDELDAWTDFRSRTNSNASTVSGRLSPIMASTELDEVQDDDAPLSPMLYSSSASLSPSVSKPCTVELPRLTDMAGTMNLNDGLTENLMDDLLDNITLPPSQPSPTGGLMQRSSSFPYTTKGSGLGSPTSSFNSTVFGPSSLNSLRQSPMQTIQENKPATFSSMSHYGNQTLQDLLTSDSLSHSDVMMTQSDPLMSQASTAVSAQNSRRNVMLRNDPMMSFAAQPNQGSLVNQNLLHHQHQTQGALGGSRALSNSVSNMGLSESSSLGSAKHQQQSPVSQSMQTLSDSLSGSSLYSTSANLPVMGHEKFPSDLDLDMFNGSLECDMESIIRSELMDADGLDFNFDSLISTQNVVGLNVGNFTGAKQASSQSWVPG"}, "[2]": {"target": "T2, RBL2 (NM-005611), substrate peptide from a peptide library, Q08999", "T2 chain": "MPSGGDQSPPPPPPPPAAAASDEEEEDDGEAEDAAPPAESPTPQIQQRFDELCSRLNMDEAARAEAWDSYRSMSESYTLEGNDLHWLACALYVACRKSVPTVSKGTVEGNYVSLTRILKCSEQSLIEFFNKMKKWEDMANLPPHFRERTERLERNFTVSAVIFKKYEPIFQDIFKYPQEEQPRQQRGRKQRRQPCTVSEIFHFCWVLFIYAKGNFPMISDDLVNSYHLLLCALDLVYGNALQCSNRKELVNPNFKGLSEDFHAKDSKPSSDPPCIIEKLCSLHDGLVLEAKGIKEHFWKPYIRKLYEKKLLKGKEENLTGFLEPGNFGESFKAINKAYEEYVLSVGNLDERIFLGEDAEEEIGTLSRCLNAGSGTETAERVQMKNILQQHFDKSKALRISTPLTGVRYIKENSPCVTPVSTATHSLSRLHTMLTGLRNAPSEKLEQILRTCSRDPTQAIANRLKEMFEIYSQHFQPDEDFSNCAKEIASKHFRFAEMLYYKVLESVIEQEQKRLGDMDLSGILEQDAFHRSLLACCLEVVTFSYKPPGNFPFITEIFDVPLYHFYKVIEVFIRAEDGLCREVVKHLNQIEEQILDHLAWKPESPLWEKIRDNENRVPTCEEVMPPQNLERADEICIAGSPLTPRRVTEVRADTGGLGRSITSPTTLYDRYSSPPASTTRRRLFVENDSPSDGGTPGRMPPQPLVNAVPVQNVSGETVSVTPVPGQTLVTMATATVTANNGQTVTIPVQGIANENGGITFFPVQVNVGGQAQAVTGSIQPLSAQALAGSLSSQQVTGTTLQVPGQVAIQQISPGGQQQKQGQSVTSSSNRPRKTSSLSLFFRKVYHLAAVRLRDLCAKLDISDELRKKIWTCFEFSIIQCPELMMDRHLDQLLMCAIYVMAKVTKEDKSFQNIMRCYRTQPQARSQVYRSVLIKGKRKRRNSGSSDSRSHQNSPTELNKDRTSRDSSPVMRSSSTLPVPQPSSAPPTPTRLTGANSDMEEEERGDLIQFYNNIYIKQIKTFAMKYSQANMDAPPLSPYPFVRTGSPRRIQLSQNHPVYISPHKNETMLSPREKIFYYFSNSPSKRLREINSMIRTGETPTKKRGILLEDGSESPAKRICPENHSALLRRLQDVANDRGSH"}}, "data": [{"protein": "B1", "values": [{"measurement": "phosphorylation of library peptides (HTS kinase assay, streptavidin-SPA beads)", "setting": "[1]", "value": "The proteins identified as HipK4 substrates with the aid of such an experimental approach are the following, inter alia; FoxO3a (NP-963853) and RBL2 (NM-005611)"}, {"measurement": "phosphorylation of library peptides (HTS kinase assay, streptavidin-SPA beads)", "setting": "[2]", "value": "The proteins identified as HipK4 substrates with the aid of such an experimental approach are the following, inter alia; FoxO3a (NP-963853) and RBL2 (NM-005611)"}]}]}
